We go through 1 molecule from patent US20230279132A1, “TREATMENT OF B CELL MALIGNANCIES” (NOVARTIS AG, priority 2020, published 2023).

This test concerns the target B-cell activating factor receptor (BAFF-R) (human) (UniProt Q96RJ3). Put plainly: receptor occupancy in patients with CLL given VAY736 i.v. with ibrutinib (clinical study CVAY736Y2102); method not stated.

B1: ianalumab (antibody, human IgG1, kappa, V domains shown)
VH: QVQLQQSGPGLVKPSQTLSLTCAISGDSVSSNSAAWGWIRQSPGRGLEWLGRIYYRSKWYNSYAVSVKSRITINPDTSKNQFSLQLNSVTPEDTAVYYCARYDWVPKIGVFDSWGQGTLVTVSS
VL: DIVLTQSPATLSLSPGERATLSCRASQFISSSYLSWYQQKPGQAPRLLIYGSSSRATGVPARFSGSGSGTDFTLTISSLEPEDFAVYYCQQLYSSPMTFGQGTKVEIKR
The molecule B1 displayed a tissue receptor occupancy above 99%.
